Laboratory results taken from the DeepSol protein solubility set.

experiment: soluble on expression in E. coli; label from the status in PepcDB or PDB records

Soluble on expression in E. coli, not soluble:
MGSDKIHHHHHHMSRDKTLFVCQECGSISNKWLGRCPDCGAWNSFVEQRVEKTVAKSQTTYATASPPQFLHAVPITDVGRSTTGLAELDRVLGGGQVPGAAILLGGEPGIGKSTLLLQTAHHLAQVSKVLYVTGEESAAQVALRAQRLGLGRSPVRVVAENHLEAIEGLLRGEQPALVLVDSIQTVYTDTLQSAPGSVAQVRECAARLVRFAKATGTTVWLVGHVTKEGAIAGPRVLEHMVDTVLYFEGEAGSPYRIVRAIKNRFGAANELGVFQMHEEGLSEVANPSQLFLSQHERPVAGSVVLATQEGTRPLLVEVQALVTPSPLANPRRVAIGLDPNRLSLLLAILHRHGDSMFFDQDVFVNIAGGIKVNEPAADLAVALALVSSFRNKPLEGRRVVFGELGLAGEVRPVAGTEARVREAVKLGFKGAILPRSDKISAAATFKLHPAGRLGDAMEAAFAAE
MSLDTTALPHTTFEGIPLDGKNKQDIQKIVQQKVEELNKKSLNYVFENNTQTYTWKDLGVEYKEKDIVANIFKEQQGNIIDRYNMRKKAIHGELKREYKLKPQLNSTAYEAFMEDKYNETLKNPVNAELNISGTTVNISESQNGEKIDKEQLAILTKQAIAANTQNIKLPIASIKPERSTEDIQNMGIKQVIAEYSTPMTGRNGSQSFNVNKSANTLSGAIVAPDETFSFNGRVGITDAAHGYKSAAVYLQGKVVQSAGGGVCQVSSTLYGAVLRADLGVVARSNHSMPVHYLPLGQDAAVADYGPDLKFKNNTGHYIYIQAFSDGNRITTRIFGTPTGKNVEVSSKVISNTGNKITAVTYKKVTKDGQVISNGQISKSVYKKEGHHHHHH
MAPDRSGGPAAAELIAGLGLERHPEGGWYRETYRAAGTIPGTLLPGQVGGERSFSTAIYFLLERGDISALHRIRSDELWHFHAGAPLIVHVITPAGGSYALTLGSDPASGETFQAVVPAGCWFGAETTGDYSLVGCTVAPGFDFADFEMGSRADLLGRFPTHAGIIRRLTRDGDLEHHHHHH
MSMIYKNIVCPVCGAACDDIQVEFGDGKIEARNACKMGNAKFQEVVSSHRLRQPLIKVNGRLTAAAWDEALERAADILVSAKRPLLFMGSETSCEAHEVGLKIGEYLGALVDSNATICHGPTAMGIQESGKVGATEGQKKNRGDLIVYWGTNPLESMPRQMSRYGVFPRGYWTKRGRFDRTVITVDPRKTPTTEASDLHVQLKPGSDYELISALLTLLHGKTPHPSVEEITGVPIPVMEEMLDMMKNCNFGAISVGLGLSSSIGKHRNAEIAMNLVKELNNYAKFTLGALRGHCNVAGFNQVASYMYGYPFGLDFMRGHPRYNPGEYTTVDVLREKDVDAAFVMCADLVCHIPADCASYLAEIPMVCLDIAPCPSTAASDVVLPGVIDAMECDGTFYRLDDVAVHFEPFTSSPFEFTKSNEDTLKQLFEKIKARK
MSGVWVFKNGVIRLVENPNQSGSDTQNRRKVMVYLPTGEVVSSYSTLEQILQSLGWERYFGGGDTDLLQFHKRSSIDLISLPRDFTKFNSVYMYDIVVKNPNYFHVRDSH
RDTSVVVEHTSANPTGPVHVGRARNPIIGDAVARVLDYAGYDVDRHYYVNDAGRQIAVFTWAYETFDEDDLPEPERESPEYEMVRYYRKGNTILEDGDPDEVEAAEAEVQSILQGLEDGDEETYERVAEVVDTVLGGMQNTLGRLPAEFDEFVKETKFMRNGDTDDLVDRLKGLDCAVYEEDAWQLDLPDFEKNLVFLRSDGTSLYTTRDLAHHEWKFDTYDRAVTVLGEDHKLQADQLAAALELLDNDTDQLRQVFYSWVNLPEGGMSTREGTGIDLDDLLDEAIDRAREEVESRLDDRTRGDLDEDDIDRIARQVGIGAVRYDIVSKQPTKGITFEWDRALDFEAQSAPYVQYV
MGSDKIHHHHHHMSTTPTTRLILETLLPHLKVAAAYAHFLQPKIAALPAKGEGNNFFSAALTDADVAIQNLVEVVLLGTFPDIRFYGEEYASSNNTKYFRATELGSKGDYLVTLDPIDGTKFYMDGHSNYQIILSILNSDDFEAVIAISPAQNIYFYALRGEGAFKGTLEMSLEACAPLHITSAKPAILLGWAMNSIGHLLKDRYQVIDIAADYSSDIQIPNLNGILTGDLSGAVIKSGKFIDVAALAFIVKEAGWIVTTLDGSTLPPLHTCQNYSLPGLVIATSKSVHQDLLKAVQSLAV
MTDQMRDMIAQLMGSQHVDNKEKPSMPFDHHSVCRAFLLGVCPHDMVPDSRLQNVVSCRKVHEPAHKADYERAQKEKDHFYDVDAFEIIEHAVHLVDIEIAKVREKLEDDVKTQTSQAADSKAKQVAEIEEKIAKNVDDIEKLGNEGKIEESMKLHKYVEELREKIQEIEDSQTEVKTAGPGSNSAKLRVCEDCGAQLNITDHESRIADHYNGKMHIGMVETRETYLKMKETIDERRKEREEKLGSQRGYQRRESYGRRDRGGDRGEYRGDRDRDRRNRDRSRSRDRSYRRDDRGDRRYDRDNRDRRDRDRRY
MDNIVTESIKFESEPNYLQRGYHLFDISFLNGLTCVITNKIETDEIHLKIKLDWDERDIEKITGFIQLSYDGHQLKPIDSNFDKRGGICTIIVPKFLYEYRWSFSFNLKLHRDPAKPPQISNDLKSQVSYDTMFEPSRKHDAVLLIGEKKLHVNKAFLSYHSDYFSDLFAEKVDEKNGIPIENVTYENFGLLMSVIYPEAVFSNHQNAEVLLELGNRFKIPAVMRHVENQIVGDTTKFPNKRLISLAEKYGLQKLLAMEIQKMKSFDQAKKFKGSDDYLQLSDATKAKIFDRLIELS
MGSDKIHHHHHHMTRPPDLLADVLDGIDALLVFSPSGSYYDRVDDVEGVDVVVVATENAVGAETFVELPLAFDDVREQIRFGIEGALSEGVVADGDELGCVAPFLSEEVDMVTRTRANAGTQSSVYELFASTRAEPGVIRDVFDVAIELGRKGQKGKPVGALFVVGDAGKVMTKSRPLSYNPFEKSHVHVGDPIVNVMLKEFSRLDGAFVISDSGKIVSSYRYLEPGAEGTDIPKGLGARHMAAGAITRDTNAVAIVLSESDGLVRAFRNGELVLELDPEDN
MGSDKIHHHHHHMVVILSERAFSRRDQTGAEVMLNRRRFLTNAATAAAATLWVSKGGMQARAEEAGNGSPWRRFEIITKVDLQPAEGPAQLWLPVVRSAGDYQKADAPLWVSNSTDIRMEKDPSSGADILRVMWEDEPRRVIEVTQHVATRDRRVTSKIAATEAELQHELRGTPSMPVDGIVKTTAMRIVEGRDRAEDRARAIYDWVIDNTFRDANIDGCGVGNARDMLETGYFGGKCADISSLFVSLARAAGLPARDVFGIRVADSADFKSLGRSGDITKAQHCRAEVYLDAHGWVPVDPADVRKVVLEENLPLDNPAVRAFREKAYGNWEMNWVGYNTARDLVLPGGELRQGFLMYPAAVTSRGELDCLNPQTFAYSITSREITA
MGSDKIHHHHHHAQNTASVQEAMANYDYKTVIRLIDEESASPQLLIQKAKALKSLGRTAEALSTLQHIIIELPENQQALVEAAECCRQLSKFNEALGYYRKVMELNPEHIYAHLQYTRLLYNYQRYGDALRESIALARKDSSATVLRLMAESMEGAGMPVESMFCYLSIIRKYPSDYLSVAKLGSIFNTMKDYEGAIALTEAYRRTDSTNVEVNRQNALAYCLRKEYPTAIKRYQDLTARGDSTLLTCYYLGVSYYATKEYYKARDWLLKAKSCQSPGANLLYYLGRSCSKTLWKQEGIGYLNQAIALTIPADSIMERLYSGLADCYRQTKQTRDQIKATKEQYKYAPDKHILLYNLAFLSDKIGDTKATEHYLQAFLRTKSKQNAVLQQPDDDEEEPAPYIDYYKSATNKLESIRKEKFLKGEK
MGSDKIHHHHHHMLPGSRSLSKELGINRKTVQAVYEELEAQGWLVTRPRKGTFVADVLPEKKPHIEPRADRKVSNKPIIQQVAQRPHNDGVPDPRLIPYELFSRAYRHALIKITQNQYMGYGDPRGMAELRQALKQMLSMERFMNVAEDEICVVRGSQMGIFLASRALPNRQGVIVVEELYYPSAVKAFQSNGFQVVSVKLDDQGIVIEDLERILKEHSVAAIYTTPHHQYPTTVTMTMSRRLQLLELSKKWGFYIIEDDYDHEFHYDSRPMPPLASLPHSELVIHVGSLSKVFAPGIRLGYIVAAPTIIQTITEDILLIDRQGNNITELALADLMQRGEIKRHIRKMKKIYQLRRDHALAEFQRVFAESIEIQPPAGGMALWVKFQKSFTQDQLIKLKELNIDTEQKFKQKECANHCIRFGFAALSEKEITSLIETLNEAL

Soluble on expression in E. coli, soluble:
MSEEVWNGNQGILSVYVSKARDLPNLNKLDKQNVMLRLRIAHMTRASNTLHRAGQNPVFHYLEKFDITPEIKPLMYVEVYCDRRKKSPLPIGRCEIDLLNAIRADPKEGYCTWYELKRSGDEFAGTIFIELTFTPKVPRLNRDDLNKEMDRLDSSMAMRPIPPLPTESEYDYVHGSTMRQITPQCVSTSHEDKDEGQPYRNGNVFSMSSKSDTAVLANSNDPIILPPTFSASMGTTSTLETNDTAISNTSNTKFHFANLRKLKEKINIFKNPDSSTNNCQNESNKVDIEALQKAIGVTSLSYDEDDDDDDENDAFYSSSHRVSHNYNQPPLPPIPTRDDMSNYSSSRNTPLVRRDRPSRLDSSSPNSHPHPSGLNSPKLPPLPTTSNSNFNSRKNSMSPTRKRPPPRLS
MILVTGSSGQIGTELVPYLAEKYGKKNVIASDIVQRDTGGIKFITLDVSNRDEIDRAVEKYSIDAIFHLAGILSAKGEKDPALAYKVNMNGTYNILEAAKQHRVEKVVIPSTIGVFGPETPKNKVPSITITRPRTMYGVTKIAAELLGQYYYEKFGLDVRSLRYPGIISYKAEPTAGTTDYAVEIFYYAVKREKYKCYLAPNRALPMMYMPDALKALVDLYEADRDKLVLRNGYNVTAYTFTPSELYSKIKERIPEFEIEYKEDFRDKIAATWPESLDSSEASNEWGFSIEYDLDRTIDDMIDHISEKLGIEGKHAL
MRPVLLLCCLFLSATAQAEDCSPQTSVGSWCELPLAALHPTQQNVGLLQVEDDQAKLAGKKPKALERYLRKKEIPVVIGPGGRFYLTDRHHLSSALWRLDPKQGVPVKVIGRLPQASDFWEKMQENHWVWLHDARGAEIPPEALPDALAGLGDDPYRALAGYAEDENAFDKDRQSYFIEFHWARYFGERMHWRPISRATLPDDLKQALRLACEPAARELPGYRQDCPH
MWKIMRSWKCGGMRWAHRQRPSHELLSQLSFDQHYKIRSNIELLIQDYASKPIAPLNYEYFLQYRPPLTKKEEYMLTIKTINLLLSLTCKRLNAIQRLPYNAVINPHIERTNSLYLKSLQTLLSIAYPYELHNPPKIQAKFTELLDDHEDAIVVLAKGLQEIQSCYPKFQISQFLNFHLKERITMKLLVTHYLSLMAQNKGDTNKRMIGILHRDLPIAQLIKHVSDYVNDICFVKFNTQRTPVLIHPPSQDITFTCIPPILEYIMTEVFKNAFEAQIALGKEHMPIEINLLKPDDDELYLRIRDHGGGITPEVEALMFNYSYSTHTQQSADSESTDLPGEQINNVSGMGFGLPMCKTYLELFGGKIDVQSLLGWGTDVYIKLKGPSKTALLSKK
MSLTVTIKDVAKKANVAPSTVSRVIADNPSISEKTKRRVRKVMSELGYHPNLNARSLANQTTKTIGLVMPSSANKAFQNPFFPEVIRGISSFAHVEGYALYMSTGETEEEIFNGVIKMVQGRQIGGIILLYSRENDRIIQYLNEKNFPFVLIGKPYDKKDKITYVDNDNYTAAREVAEYFISLGHKRIAFIGGGSDLLVTKDRLAGMSDALKLADIQLPSEYIFHLDFSRESGQQAVEELMGLKEPPTAIMATDDLIGLGVLSALTAKGISVPKDVSLVSFNNVLLSEIASPPLTTVDVNIYQLGYEAAKALVDKVEHSESSSKCIVIPHKLLKRQTCEGHHHHHH
